Results: patent US20200131474A1, “METHODS AND COMPOSITIONS FOR OCULAR CELL THERAPY” (Novartis AG, priority 2018, published 2020)

Assays:
phospho-YAP (ser127) = assay: Exposure of LSCs to LATS inhibitors, YAP phosphorylation by western blot; assay type: cell-based, human; details: 10 micromolar, 1 hour, DMSO as negative control
Method: The medium was then replaced by fresh limbal epithelium cell culture medium (DMEM F12 supplemented with 10% human serum and 1.3 mM calcium chloride) supplemented with LATS inhibitor compound example no. […] Cells were cultured under these conditions for 1 hour at 37° C. in 5% CO2.
To measure the effect of the LATS inhibitors on the downstream target YAP, the YAP phosphorylation levels were measured by western blot as follows. The cell pellets were obtained by trypsin dissociation and centrifugation and washed with PBS. The pellets were lysed with 30 microlitres of RIPA lysis buffer containing protease inhibitor cocktail (Life Technologies) for 30 minutes, with vortexing every 10 minutes. The cell debris were then pelleted at 4° C. for 15 minutes at 14 k rpm and the protein lysate was collected. Protein concentration was quantified using a micro BCA kit (Pierce). Fifteen micrograms of total protein was loaded in each well of 4-20% TGX gels (BioRad) and Western blotting was performed according to the manufacturer's instructions. […] Membranes were stained with HRP-conjugated secondary antibodies, rinsed and imaged using a ChemiDoc system (Biorad) according to the manufacturer's instructions.

YAP = assay: Exposure of LSCs to LATS inhibitors, intracellular YAP distribution by immunohistochemistry; assay type: cell-based, human; details: 10 micromolar, 24 hours, compared with DMSO control; data not shown
Method: Research-consented cadaveric human corneas were obtained from eye banks. Limbal rims were dissected and partially dissociated in a 1.2 mg/ml dispase solution for 2 hours at 37° C. followed by 10 minutes in TrypLE (Life Technologies). Pieces of limbal crypts were then carefully cut out of the partially dissociated limbal rims and rinsed by centrifugation). Cells obtained in this manner were used in the Examples below.
Cells were cultured under these conditions for 24 hours at 37° C. in 5% CO2.
To measure the effect of the LATS inhibitors on the downstream target YAP, intracellular YAP distribution was analyzed by immunohistochemistry. Cell cultures were fixed with 4% PFA for 20 minutes, permeabilized and blocked in a blocking solution of 0.3% Triton X-100 (Sigma-Aldrich) and 3% donkey serum in PBS for 30 minutes. Cells were then labeled with primary antibody in the blocking solution for 12 hours at 4° C. Primary antibody used was anti-YAP from Santa Cruz Biotechnology. Samples were washed in PBS three times and donkey-raised secondary antibody Alexa Fluor 488 (Molecular Probes) at 1:500 dilution were applied for 30 minutes at room temperature. […] Fluorescence was observed using a Zeiss LSM 880 confocal microscope.

limbal stem cells = assay: Human limbal stem cell population expansion, immunohistochemical observation of p63alpha phenotype; assay type: cell-based; details: for colony formation and p63alpha expression: 10 micromolar, 6 days after isolation without passaging, DMSO as negative control
Method: Cells were first cultured at 37° C. in 5% CO2 for 6 days after isolation without passaging (FIGS. 2A, 2B and 2C).
To evaluate the ability of the compounds to enable LSC expansion after two passages, LSCs were passaged and cultured for two weeks in the presence of compound example 3 to enable expansion (FIG. 2D). Limbal stem cells (LSCs) were passaged by treating cultures with Accutase for 10 minutes at 37° C., rinsing the cell suspension by centrifugation and plating cells in fresh LSC culture medium supplemented with LATS inhibitor compound example 3.
In order to observe that the expanded cell population expressed p63alpha, this was measured by immunohistochemistry as follows. Cell cultures were fixed with 4% PFA for 20 minutes, permeabilized and blocked in a blocking solution of 0.3% Triton X-100 (Sigma-Aldrich) and 3% donkey serum in PBS for 30 minutes. Cells were then labeled with primary antibody in the blocking solution for 12 hours at 4° C. Primary antibody used was p63alpha from Cell Signalling. Samples were washed in PBS three times and donkey-raised secondary antibody Alexa Fluor 488 (Molecular Probes) at 1:500 dilution were applied for 30 minutes at room temperature. Cells were counter-stained with a human nuclear antigen antibody (Millipore) at a 1:500 dilution in order to label all cells in the culture and confirm their human identity. […] Fluorescence was observed using a Zeiss LSM 880 confocal microscope.

[1] = system: potential off-target sites; assay: Off-target activity detection in limbal stem cells by targeted PCR and NGS; assay type: cell-based, human; details: edited LSCs vs non-edited PBMCs; positive sites of sequenced loci
Method: Potential CRISPR/Cas9-mediated cutting sites identified above were evaluated using targeted PCR and NGS in genome-edited expanded LSCs.
Selected sgRNAs (SEQ ID NO: 120, 162, 166, 167, 171, and 175) were further analyzed by amplicon sequencing in edited and non-edited cells. Primers flanking the potential off-target sites for each guide were used to detect indels by NGS analysis in edited LSCs and non-edited peripheral blood mononuclear cells. Sites that had either (1) a difference in mean indel percentage between edited and unedited cells greater than 0.5%; or (2) a p value less than 0.05 between edited and unedited indel were further analyzed. NGS sequence reads for such sites were assessed for characteristic indel patterns near the putative Cas9 cut site.

[2] = system: genomic DNA purified from male human peripheral blood mononuclear cells; assay: Biochemical method for potential off-target genomic sites cleaved by Cas9 and B2M guides; details: guide concentration of 64 nM
Text: A biochemical method (See, e.g., Cameron et al., Nature Methods. 6, 600-606; 2017) was used to determine potential off-target genomic sites cleaved by Cas9 and selected B2M guides.

| Molecule | Number of sites positive for off-target activity in LSCs [1] | off-target Site_Count [2] | also measured |
| --- | --- | --- | --- |
| CC(C)(O)CC(C)(C)Nc1nc(-c2ccncc2)nc2cnccc12 [Example 3, 2,4-dimethyl-4-{[2-(pyridin-4-yl)pyrido[3,4-d]pyrimidin-4-yl]amino}pentan-2-ol] | – | – | YAP phosphorylation levels in human LSCs (Western blot) (phospho-YAP (ser127)): caused a reduction in YAP phosphorylation levels; YAP phosphorylation levels in human LSCs (Western blot) (phospho-YAP (ser127); listed as ex. 3): induce YAP dephosphorylation; YAP immunostaining in the nucleus of LSCs (YAP): stronger; colony formation and p63alpha expression (limbal stem cells): the cells formed colonies and expressed p63alpha; cell population expansion after passaging, p63alpha expression (limbal stem cells; passaged and cultured for two weeks in the presence of compound): enabled cell population expansion and the formation of confluent cultures expressing p63alpha |
| Cc1n[nH]cc1-c1nc(NC2(C)CC2)c2ccncc2n1 [Example 4, 2-(3-methyl-1H-pyrazol-4-yl)-N-(1-methylcyclopropyl)pyrido[3,4-d]pyrimidin-4-amine] | – | – | YAP phosphorylation levels in human LSCs (Western blot) (phospho-YAP (ser127); listed as ex. 4): induce YAP dephosphorylation; YAP phosphorylation levels in human LSCs (Western blot) (phospho-YAP (ser127); listed as example no. 4): caused a reduction in YAP phosphorylation levels; YAP immunostaining in the nucleus of LSCs (YAP): stronger; colony formation and p63alpha expression (limbal stem cells): the cells formed colonies and expressed p63alpha |
| CR000442: gRNA targeting B2M; targeting domain GGCCACGGAGCGAGACAUCU (SEQ ID NO: 134); sgRNA SEQ ID NO: 171 (nucleic acid, listed as RNA, chemistry not given here) guide: GGCCACGGAGCGAGACAUCUGUUUUAGAGCUAGAAAUAGCAAGUUAAAAUAAGGCUAGUCCGUUAUCAACUUGAAAAAGUGGCACCGAGUCGGUGCUUUU | zero | 29 | – |
| CR000455: gRNA targeting B2M; targeting domain UUACCCCACUUAACUAUCUU (SEQ ID NO: 138); sgRNA SEQ ID NO: 175 (nucleic acid, listed as RNA, chemistry not given here) guide: UUACCCCACUUAACUAUCUUGUUUUAGAGCUAGAAAUAGCAAGUUAAAAUAAGGCUAGUCCGUUAUCAACUUGAAAAAGUGGCACCGAGUCGGUGCUUUU | zero | 48 | – |
| 4-CR004366: gRNA targeting B2M (Dharmacon); targeting domain CAGUAAGUCAACUUCAAUGU (SEQ ID NO: 111); sgRNA SEQ ID NO: 162 (nucleic acid, listed as RNA, chemistry not given here) guide: CAGUAAGUCAACUUCAAUGUGUUUUAGAGCUAGAAAUAGCAAGUUAAAAUAAGGCUAGUCCGUUAUCAACUUGAAAAAGUGGCACCGAGUCGGUGCUUUU | zero | 92 | – |
| 8-HEYJA000004: gRNA targeting B2M; targeting domain ACUCACGCUGGAUAGCCUCC (SEQ ID NO: 115 in Table 10, 118 in Table 4); sgRNA SEQ ID NO: 166 (nucleic acid, listed as RNA, chemistry not given here) guide: ACUCACGCUGGAUAGCCUCCGUUUUAGAGCUAGAAAUAGCAAGUUAAAAUAAGGCUAGUCCGUUAUCAACUUGAAAAAGUGGCACCGAGUCGGUGCUUUU | zero | 62 | – |
| 9-HEYJA000005: gRNA targeting B2M; targeting domain UCACGUCAUCCAGCAGAGAA (SEQ ID NO: 116); sgRNA SEQ ID NO: 167 (nucleic acid, listed as RNA, chemistry not given here) guide: UCACGUCAUCCAGCAGAGAAGUUUUAGAGCUAGAAAUAGCAAGUUAAAAUAAGGCUAGUCCGUUAUCAACUUGAAAAAGUGGCACCGAGUCGGUGCUUUU | zero | 35 | – |
| 6-HEYJA000001: gRNA targeting B2M; targeting domain GGCCGAGAUGUCUCGCUCCG (SEQ ID NO: 113); sgRNA SEQ ID NO: 164 (nucleic acid, listed as RNA, chemistry not given here) guide: GGCCGAGAUGUCUCGCUCCGGUUUUAGAGCUAGAAAUAGCAAGUUAAAAUAAGGCUAGUCCGUUAUCAACUUGAAAAAGUGGCACCGAGUCGGUGCUUUU | – | 8 | – |
| CR000443: gRNA targeting B2M; targeting domain CGCGAGCACAGCUAAGGCCA (SEQ ID NO: 135); sgRNA SEQ ID NO: 172 (nucleic acid, listed as RNA, chemistry not given here) guide: CGCGAGCACAGCUAAGGCCAGUUUUAGAGCUAGAAAUAGCAAGUUAAAAUAAGGCUAGUCCGUUAUCAACUUGAAAAAGUGGCACCGAGUCGGUGCUUUU | – | 117 | – |
| CR000446: gRNA targeting B2M; targeting domain AGGGUAGGAGAGACUCACGC (SEQ ID NO: 136); sgRNA SEQ ID NO: 173 (nucleic acid, listed as RNA, chemistry not given here) guide: AGGGUAGGAGAGACUCACGCGUUUUAGAGCUAGAAAUAGCAAGUUAAAAUAAGGCUAGUCCGUUAUCAACUUGAAAAAGUGGCACCGAGUCGGUGCUUUU | – | 98 | – |
| CR000453: gRNA targeting B2M; targeting domain CACAGCCCAAGAUAGUUAAG (SEQ ID NO: 137); sgRNA SEQ ID NO: 174 (nucleic acid, listed as RNA, chemistry not given here) guide: CACAGCCCAAGAUAGUUAAGGUUUUAGAGCUAGAAAUAGCAAGUUAAAAUAAGGCUAGUCCGUUAUCAACUUGAAAAAGUGGCACCGAGUCGGUGCUUUU | – | 82 | – |
| CR000456: gRNA targeting B2M; targeting domain CUUACCCCACUUAACUAUCU (SEQ ID NO: 139); sgRNA SEQ ID NO: 176 (nucleic acid, listed as RNA, chemistry not given here) guide: CUUACCCCACUUAACUAUCUGUUUUAGAGCUAGAAAUAGCAAGUUAAAAUAAGGCUAGUCCGUUAUCAACUUGAAAAAGUGGCACCGAGUCGGUGCUUUU | – | 66 | – |
